In US20090130692A1 one finds Ki data, which are given here for ten molecules.

Experiment [1] deals with bovine pancreatic trypsin (bovine), P00760. Description: enzyme inhibition; residual trypsin activity fitted to tight-binding equation (Morrison); apparent Ki (Kiapp).
For experiment [2], the target named is human tryptase β-II (Human), P20231. Description: enzyme inhibition, selectivity panel; apparent Ki (Kiapp).
Experiment [3] deals with T1, porcine trypsin (Porcine), P00761.
T1 chain: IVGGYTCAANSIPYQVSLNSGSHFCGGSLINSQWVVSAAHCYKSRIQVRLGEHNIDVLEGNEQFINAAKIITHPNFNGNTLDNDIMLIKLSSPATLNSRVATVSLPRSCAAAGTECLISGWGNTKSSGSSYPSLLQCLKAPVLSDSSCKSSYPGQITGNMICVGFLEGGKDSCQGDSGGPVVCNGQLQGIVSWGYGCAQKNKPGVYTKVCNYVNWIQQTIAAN
The description is as above.

The target in experiment [4] is sheep tryptase ST2 (Sheep). The description is as above.
sheep tryptase ST2 (Sheep), sequence (Q9XSM2 29-273): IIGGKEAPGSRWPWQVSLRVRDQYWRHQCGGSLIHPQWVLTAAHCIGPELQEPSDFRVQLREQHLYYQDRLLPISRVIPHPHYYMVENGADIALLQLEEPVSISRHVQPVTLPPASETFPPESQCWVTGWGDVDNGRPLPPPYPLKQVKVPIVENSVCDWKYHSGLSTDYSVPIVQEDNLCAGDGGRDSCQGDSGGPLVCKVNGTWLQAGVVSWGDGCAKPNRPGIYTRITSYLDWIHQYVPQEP
Experiment [5] addresses T2, human plasmin (Human), P00747.
T2 chain: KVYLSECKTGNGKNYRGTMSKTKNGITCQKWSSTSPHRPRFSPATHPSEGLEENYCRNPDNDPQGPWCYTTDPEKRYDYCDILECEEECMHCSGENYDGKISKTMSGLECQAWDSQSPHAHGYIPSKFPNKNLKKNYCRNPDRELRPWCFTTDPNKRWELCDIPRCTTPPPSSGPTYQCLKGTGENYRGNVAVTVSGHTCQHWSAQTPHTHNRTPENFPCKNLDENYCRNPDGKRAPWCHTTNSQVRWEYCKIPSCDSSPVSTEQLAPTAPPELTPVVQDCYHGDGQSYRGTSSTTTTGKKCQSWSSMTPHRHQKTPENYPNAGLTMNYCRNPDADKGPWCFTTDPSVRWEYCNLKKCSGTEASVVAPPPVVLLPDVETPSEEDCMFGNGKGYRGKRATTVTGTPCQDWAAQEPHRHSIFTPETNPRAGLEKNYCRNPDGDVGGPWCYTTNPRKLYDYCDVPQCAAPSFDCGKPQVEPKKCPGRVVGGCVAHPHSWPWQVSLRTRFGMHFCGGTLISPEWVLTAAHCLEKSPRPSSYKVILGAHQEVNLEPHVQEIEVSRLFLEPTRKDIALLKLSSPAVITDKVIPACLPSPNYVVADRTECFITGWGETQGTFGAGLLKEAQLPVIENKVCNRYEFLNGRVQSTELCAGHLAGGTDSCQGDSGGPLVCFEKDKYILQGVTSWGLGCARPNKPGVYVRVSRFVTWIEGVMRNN
Described as above.

The target of experiment [6] is human tryptase β-Ia (Human), Q15661. Described as above.
human tryptase β-Ia (Human), Q15661, sequence (Q15661 31-275 limits assumed): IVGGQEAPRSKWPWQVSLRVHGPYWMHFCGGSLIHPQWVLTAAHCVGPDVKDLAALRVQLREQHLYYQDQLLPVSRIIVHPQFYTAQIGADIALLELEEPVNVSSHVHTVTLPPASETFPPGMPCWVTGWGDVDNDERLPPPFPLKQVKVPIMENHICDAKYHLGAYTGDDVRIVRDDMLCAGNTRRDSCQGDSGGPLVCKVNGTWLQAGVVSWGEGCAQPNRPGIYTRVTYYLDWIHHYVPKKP
The target of experiment [7] is hK3 (human kallikrein) (Human), P07288. Described as above.
hK3 (human kallikrein) (Human), P07288, sequence (P07288 25-261): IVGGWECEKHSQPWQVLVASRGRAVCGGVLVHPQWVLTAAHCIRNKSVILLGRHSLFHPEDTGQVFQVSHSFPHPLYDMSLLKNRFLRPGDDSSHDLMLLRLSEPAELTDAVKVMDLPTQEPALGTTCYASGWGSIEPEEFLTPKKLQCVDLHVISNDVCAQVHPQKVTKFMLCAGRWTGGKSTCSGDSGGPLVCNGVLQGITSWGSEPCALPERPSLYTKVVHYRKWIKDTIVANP

bovine pancreatic trypsin (bovine), P00760, sequence (P00760 24-246): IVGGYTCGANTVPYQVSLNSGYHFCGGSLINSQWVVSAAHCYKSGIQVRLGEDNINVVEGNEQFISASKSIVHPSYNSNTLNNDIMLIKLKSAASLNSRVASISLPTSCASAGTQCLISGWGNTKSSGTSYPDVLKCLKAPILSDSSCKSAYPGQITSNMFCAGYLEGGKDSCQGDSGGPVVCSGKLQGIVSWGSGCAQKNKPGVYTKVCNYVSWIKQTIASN
human tryptase β-II (Human), P20231, sequence (P20231 31-275 limits assumed): as the sequence (Q15661 31-275 limits assumed) above, with H21R, G22D, P23R counted along it

B1: SE-MC-K (peptide)
peptide: GVCPKILKKCRRDSDCPGACICRGNGYCG
modifications: not checked
For B1, the Ki in experiment [1] turned out to be 0.3 nM.

B2: MCoTI-AlaG (peptide)
peptide: GVCPGILKKCRRDSDCPGACICRGNGYCG
modifications: not checked
On to B2, for which, in experiment [1], the Ki stood at 1000 nM.

B3: MCoEeTI (peptide)
peptide: GSVCPKILKKCRRDSDCLAGCVCGPNGFCGS
modifications: not checked
Regarding B3, the Ki in experiment [1] came out at 0.03 nM.

B4: MCoTI-KKV (peptide)
peptide: KKVGVCPKILKKCRRDSDCPGACICRGNGYCG
modifications: not checked
In the case of B4, the Ki amounted to 0.4 nM in experiment [1]; 4 nM in experiment [2]; 0.4 nM in experiment [3]; 100 nM in experiment [4]; 400 nM in experiment [5]; 3 nM in experiment [6].

B5: MCoTI-LAKC (peptide)
peptide: GVCPKILAKCRRDSDCPGACICRGNGYCG
modifications: not checked
Turning to B5, in experiment [1], the Ki came to 0.2 nM.

B6: MCoTI-LKRC (peptide)
peptide: GVCPKILKRCRRDSDCPGACICRGNGYCG
modifications: not checked
Consider B6, for which the Ki in experiment [1] is 0.4 nM.

B7: MCoTI-LKAC (peptide)
peptide: GVCPKILKACRRDSDCPGACICRGNGYCG
modifications: not checked
With B7, in experiment [1], the Ki turned out to be 0.4 nM.

B8: MCoTI-LRKC (peptide)
peptide: GVCPKILRKCRRDSDCPGACICRGNGYCG
modifications: not checked
In the case of B8, the Ki in experiment [1] came to 0.5 nM.

B9: SE-MG-0 (peptide)
peptide: GVCPKILKKCRRDSDCLAGCVCGPNGFCGS
modifications: not checked
As to B9, the Ki is 0.3 nM in experiment [1]; 70 nM in experiment [2]; 0.3 nM in experiment [3]; 4000 nM in experiment [4]; 600 nM in experiment [5]; 70 nM in experiment [6].

B10: MCoTI-R (peptide)
peptide: GVCPRILKKCRRDSDCPGACICRGNGYCG
modifications: not checked
As for B10, the Ki was 0.8 nM in experiment [1]; 40 nM in experiment [2]; 0.8 nM in experiment [3]; 1000 nM in experiment [4]; 100 nM in experiment [7]; 40 nM in experiment [6].
